Measurements: US20130079286A1 (Pieris, published 2013)
Residue numbers refer to the chain shown, from its start. Numbers in names are those of the source.

Experiments:
[1] = molecular target: T1, biotinylated Aβ40 peptide (human, C-terminal biotin group attached via a lysine spacer); assay: capture ELISA: mutein captured via Strep-tag II, biotinylated Aβ40 titrated
T1 construct: Synthetic peptide (Peptide Speciality Laboratory) with a C-terminal biotin on a lysine spacer; used in the capture ELISAs
T1 sequence (peptide, as listed by the source): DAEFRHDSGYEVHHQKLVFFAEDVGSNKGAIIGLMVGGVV
Method: (§1) FIG. 19 depicts the binding activity of the Lcn2 muteins H1GA, H1GV, and H1-G1 in capture ELISAs with the biotinylated Aβ targets Aβ40 (A) and Trx-Aβ28 (B). StrepMAB-Immo was immobilized at 10 μg/ml on microtitre plates and employed for capturing of 1 μM Lcn2 muteins via the Strep-tag H. Binding of the biotinylated targets, applied in a dilution series, was then detected by incubation with ExtrAvidin/AP and a subsequent chromogenic reaction with pNPP. […] The data were fitted to a monovalent binding model.

Trx-Aβ28 fusion protein = molecular target: T2, Trx-Aβ28 fusion protein (Escherichia coli (strain K12), UniProt P0AA25 1-76 = thioredoxin, Biotin-labelled through an NHS ester (2:1) in the capture and competitive ELISAs; unlabeled in the direct ELISA and as competitor.); assay: capture ELISA: mutein captured via Strep-tag II, biotinylated Trx-Aβ28 titrated
T2 construct: the entry may be a nucleic acid; also called TrxAbeta28H6
Method: as §1

MBP-Aβ40 fusion protein [2] = molecular target: T3, MBP-Aβ40 fusion protein; assay: SPR (Biacore X, FIG. 20), MBP-Aβ40 immobilised, H1GV injected; the table marks the row '* dissociation time not sufficiently long'
T3 construct: the entry may be a nucleic acid; Biotin-labelled in the capture ELISA, unlabeled in the direct ELISA and SPR; also called MBP-Abeta40
Method: (§2) FIG. 20 depicts the kinetic real time analysis of Lcn2 muteins H1GA (A) and H1GV (B) measured on a Biacore X instrument at a flow rate of 20 μl/min. The MBP-Aβ40 fusion protein was coupled via amine chemistry to a CMD 2001 chip (ΔRU=1316) and each of the purified Lcn2 muteins was applied in a series at varying concentrations. The measured signal is shown as a grey line while the curve fit is depicted as a black line in each case.
(§3) Real time analysis of the interaction between Lcn2 muteins H1GA or H1GV and MBP-Aβ40 (SEQ ID NO: 33) was performed on a Biacore X system using PBS/T (4 mM KH₂PO₄, 16 mM Na₂HPO₄, 115 mM NaCl, pH 7.4 containing 0.005% (v/v) Tween 20) as running buffer. A 15 μg/mL solution of MBP-Aβ40 from Example 2 in 10 mM Na-acetate, pH 4.5 was immobilized onto a CMD 200I chip (Xantec, Düsseldorf, Germany) using standard amine coupling chemistry, resulting in a ligand density of 1316 resonance units (RU). The purified Lcn2 muteins H1GA and H1GV from Example 20 were applied in concentrations ranging from 4 nM to 128 nM at a flow rate of 20 μL/min. The data were double-referenced by subtraction of the corresponding signals measured for the control channel, which had been activated and blocked with ethanolamine, as well as subtraction of the measured signals for an average of buffer injections.

MBP-Aβ40 fusion protein [3] = molecular target: T3, MBP-Aβ40 fusion protein; assay: SPR (Biacore X), MBP-Aβ40 amine-coupled (1316 RU), mutein as analyte
Method: as §2, §3

ovalbumin = molecular target: T4, ovalbumin (UniProt P01012 2-386); assay: capture ELISA
T4 sequence (looked up): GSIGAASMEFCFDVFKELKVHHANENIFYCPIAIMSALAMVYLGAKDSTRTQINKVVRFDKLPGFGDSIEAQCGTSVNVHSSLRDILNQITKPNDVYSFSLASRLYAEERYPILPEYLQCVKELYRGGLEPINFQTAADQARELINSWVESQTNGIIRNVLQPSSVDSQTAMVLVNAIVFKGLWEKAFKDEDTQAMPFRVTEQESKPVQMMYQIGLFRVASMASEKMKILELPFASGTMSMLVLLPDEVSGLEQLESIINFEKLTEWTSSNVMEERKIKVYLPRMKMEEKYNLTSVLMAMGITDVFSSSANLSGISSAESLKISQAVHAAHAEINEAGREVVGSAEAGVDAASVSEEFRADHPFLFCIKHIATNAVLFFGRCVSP

[4] = molecular target: T5, Aβ40 peptide, non-labeled (human); assay: SPR (Biacore T100), Aβ40 amine-coupled on CM5 (325 RU), dissociation 7200 s
T5 construct: Non-labeled synthetic peptide (W. M. Keck Laboratory); also called Abeta40; amyloid beta peptide
T5 sequence (peptide, as listed by the source): as the sequence (peptide, as listed by the source) above
Method: (§4) FIG. 21 depicts the kinetic real time analysis of the Lcn2 mutein H1GA measured on a Biacore T100 instrument with immobilized Aβ40 using an extended dissociation time for a trace measured at high concentration. The target peptide Aβ40 was coupled via amine chemistry onto the Biacore CM5 chip (ΔRU=325), and the purified Lcn2 mutein H1GA was applied at a flow rate of 30 μl/min. For exact determination of the low koff rate, dissociation was performed for 7200 s at the highest concentration tested. kon rates were determined using the dilution series of the Lcn2 mutein H1GA with both association and dissociation times of 300 s.
(§5) Real time analysis of the interaction between the Lcn2 mutein H1GA and Aβ40 (SEQ ID NO: 29) was performed on a Biacore T100 system (Biacore, Uppsala, Sweden) using PBS/P (4 mM KH₂PO₄, 16 mM Na₂HPO₄, 115 mM NaCl, pH 7.4 containing 0.005% (v/v) Surfactant P20) as running buffer. […] For exact determination of the low koff rate the highest concentration was analysed using a dissociation time of 7200 s. The data were double-referenced as in Example 21. kₒₙ and koff for the binding reaction were determined from the entire data set using Biacore T100 Evaluation Software V2.0.3 for data processing and kinetic fitting. […]

MBP-Aβ40 fusion protein [5] = molecular target: T3, MBP-Aβ40 fusion protein; assay: SPR (Biacore X, FIG. 20), MBP-Aβ40 immobilised, H1GA injected; the table marks the row '* dissociation time not sufficiently long'
Method: as §2, §3

[6] = molecular target: T5, Aβ40 peptide, non-labeled; assay: SPR (Biacore T100), Aβ40 amine-coupled on CM5 (325 RU), mutein as analyte
Method: as §4, §5

[7] = molecular target: T6, recombinant human fibronectin fragment FN7B8 (human, UniProt P02751 1173-1448); assay: SPR (BIAcore X), FN7B8 amine-coupled (about 500 RU), mutein as analyte
T6 construct: no separate number is printed for the protein, so the entry may be a nucleic acid
T6 sequence (P02751 other isoform, or with tags, fused parts or gaps limits assumed): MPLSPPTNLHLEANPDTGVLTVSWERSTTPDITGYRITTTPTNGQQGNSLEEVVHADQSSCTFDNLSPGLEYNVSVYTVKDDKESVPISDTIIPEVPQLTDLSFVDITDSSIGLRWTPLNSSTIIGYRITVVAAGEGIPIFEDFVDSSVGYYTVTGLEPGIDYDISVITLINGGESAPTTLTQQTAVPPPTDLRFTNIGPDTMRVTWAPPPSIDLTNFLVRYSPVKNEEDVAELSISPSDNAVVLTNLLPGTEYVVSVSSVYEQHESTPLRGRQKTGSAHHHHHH
Description: (§6) FIG. 13 depicts the kinetic real time analysis of Lcn2 mutein N9B measured on a Biacore instrument. FN7B8 was coupled via amine chemistry to a CMD 200 m sensor chip (ΔRU=500) and the purified Lcn2 mutein was applied at varying concentrations. The measured signal is shown as a grey line whereas the curve fit is depicted as a black line in each case.
as §6, with “14” for “13”, “N7E” for “N9B”
Real time analysis of Lcn2 muteins was performed on a BIAcore X system (BIAcore, Uppsala, Sweden) using HBS/ET (20 mM Hepes, pH 7.5, 150 mM NaCl, 1 mM EDTA containing 0.005% (v/v) Tween 20) as running buffer. 200 μg/ml solution of recombinant FN7B8 in 10 mM Na-acetate, pH 4.0 was immobilized on a CMD 200 m Sensorchip (XanTec bioanalytics, Duesseldorf, Germany) using standard amine coupling chemistry (Biacore, Uppsala, Sweden), resulting in a ligand density of about 500 resonance units (RU). The purified Lcn2 mutein was applied at a flow rate of 25 μl/min at concentrations of 2.5 up to 160 nM. The sensorgrams were corrected by subtraction of the corresponding signals measured for the control channel, which had been activated and blocked with ethanolamine.

BSA = molecular target: T7, BSA (bovine, UniProt P02769 25-607); assay: ELISA on coated protein
T7 construct: also called bovine serum albumin
T7 sequence (P02769 25-607 limits assumed): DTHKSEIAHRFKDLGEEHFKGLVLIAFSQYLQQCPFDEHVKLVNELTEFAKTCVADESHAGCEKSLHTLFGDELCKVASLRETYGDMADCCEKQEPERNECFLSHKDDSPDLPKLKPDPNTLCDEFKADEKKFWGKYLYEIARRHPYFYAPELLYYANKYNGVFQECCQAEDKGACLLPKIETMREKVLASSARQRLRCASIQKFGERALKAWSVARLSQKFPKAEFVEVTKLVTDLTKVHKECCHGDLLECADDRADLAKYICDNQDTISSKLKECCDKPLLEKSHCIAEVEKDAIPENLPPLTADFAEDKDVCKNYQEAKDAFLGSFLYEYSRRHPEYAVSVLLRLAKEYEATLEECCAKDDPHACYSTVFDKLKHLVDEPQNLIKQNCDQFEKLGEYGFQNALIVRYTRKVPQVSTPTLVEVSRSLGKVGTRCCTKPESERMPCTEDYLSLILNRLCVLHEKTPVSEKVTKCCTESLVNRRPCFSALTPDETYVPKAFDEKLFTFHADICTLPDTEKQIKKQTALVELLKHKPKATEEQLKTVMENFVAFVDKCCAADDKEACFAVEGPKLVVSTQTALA

[8] = molecular target: T8, recombinant human fibronectin fragment FN789 (human, UniProt P02751 1173-1539); assay: ELISA on coated protein
T8 construct: the entry may be a nucleic acid
T8 sequence (P02751 other isoform, or with tags, fused parts or gaps limits assumed): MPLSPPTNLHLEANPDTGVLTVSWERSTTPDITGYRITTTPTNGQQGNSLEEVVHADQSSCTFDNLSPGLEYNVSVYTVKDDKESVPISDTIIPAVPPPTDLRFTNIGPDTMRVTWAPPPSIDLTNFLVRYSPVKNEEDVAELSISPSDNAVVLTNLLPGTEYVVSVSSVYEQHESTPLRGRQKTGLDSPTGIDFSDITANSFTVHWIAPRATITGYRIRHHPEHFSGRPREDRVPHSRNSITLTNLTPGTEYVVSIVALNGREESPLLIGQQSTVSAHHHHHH

[9] = molecular target: T9, recombinant fibronectin single domain ED-B (human); assay: SPR (BIAcore X), ED-B amine-coupled (about 180 RU), mutein as analyte
T9 construct: the entry may be a nucleic acid; also called extra domain-B; extra-domain B
T9 sequence (chain, as listed by the source limits assumed): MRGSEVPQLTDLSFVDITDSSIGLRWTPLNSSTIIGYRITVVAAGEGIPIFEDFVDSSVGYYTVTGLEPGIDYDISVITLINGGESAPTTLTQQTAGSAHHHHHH
Method: (§7) FIG. 27 depicts the kinetic real time analysis of Lcn2 variants N7A (A), N7E (B), N9B (C) and N10D (D) measured on a Biacore X instrument. The single fibronectin domain ED-B was coupled via amine chemistry to a CMD 200 m sensor chip (ΔRU=180) and the purified Lcn2 variants were applied at varying concentrations. The measured signals are shown as traces together with the curve fits.
(§8) Real time interaction analysis of Lcn2 muteins was performed on a BIAcore X instrument using HBS/ET (20 mM Hepes, pH 7.5, 150 mM NaCl, 1 mM EDTA containing 0.005% (v/v) Tween 20) as running buffer. 100 μg/ml solution of recombinant ED-B in 10 mM Na-acetate, pH 4.0 was immobilized on a CMD 200 m Sensorchip using standard amine coupling chemistry, resulting in a ligand density of about 180 resonance units (RU). The purified Lcn2 mutein was applied at a flow rate of 25 μl/min at concentrations of 2.5 up to 160 nM. The sensorgrams were corrected by subtraction of the corresponding signals measured for the control channel, which had been activated and blocked with ethanolamine. […] In the case of N10D the heterogeneous analyte competing reaction model was used for data fitting, resulting in two sets of kinetic constants.

[10] = molecular target: T9, recombinant fibronectin single domain …; assay: SPR (BIAcore X), ED-B immobilised by amine coupling, Lcn2 mutein injected at 0 to 80 nM, 1:1 model
Method: as §7
as §8, with “The purified Lcn2 mutein was applied at a flow rate of 25 μl/min at concentrations of 2.5 up to 160 nM.” left out

[11] = molecular target: T6, recombinant human fibronectin fragment …; assay: ELISA: FN7B8 coated, mutein titrated, detected via Strep-tag II

B1: Lcn2 mutein H1GV (designed binder)
chain: QDSTSDLIPAPPLSKVPLQQNFQDNQFHGKWYVVGVAGNVLLREDKDPLKMYATIYELKEDKSYNVTSVGFDDKKCLYKIRTFVPGSQPGEFTLGRIKSEPGGTSWLVRVVSTNYNQHAMVFFKEVAQNRETFNITLYGRTKELTSELKENFIRFSKSLGLPENHIVFPVPIDQCIDG
notes: H1-G1 with Cys36 replaced by Val
In the case of B1, the Kd [1] is reported as 4.9 nM, the Kd (Trx-Aβ28 fusion protein) is reported as 4.2 nM and the Kd (MBP-Aβ40 fusion protein [2]) is reported as 1.1 nM. It also gave a Kd (MBP-Aβ40 fusion protein [3]) of 1.06 nM, a koff (MBP-Aβ40 fusion protein [3]) of 7.26e-05 s⁻¹ and a kon (MBP-Aβ40 fusion protein [3]) of 68400 M⁻¹ s⁻¹. B1: no binding (ovalbumin).

B2: Lcn2 mutein H1GA (designed binder)
chain: B1 chain with V36A
notes: H1-G1 with Cys36 replaced by Ala
For B2, the Kd [1] was 4.2 nM, the Kd (Trx-Aβ28 fusion protein) was 3.8 nM and the koff [4] was 1.18e-05 s⁻¹. The Kd (MBP-Aβ40 fusion protein [5]) was 0.48 nM, the Kd (MBP-Aβ40 fusion protein [3]) was 0.476 nM and the koff (MBP-Aβ40 fusion protein [3]) was 2.75e-05 s⁻¹. For the same binder, the kon (MBP-Aβ40 fusion protein [3]) was 57700 M⁻¹ s⁻¹, the Kd [6] was 0.095 nM and the kon [6] was 125000 M⁻¹ s⁻¹. B2: no binding (ovalbumin).

B3: Lcn2 mutein N9B (designed binder)
chain: QDSTSDLIPAPPLSKVPLQQNFQDNQFHGKWYVVGRAGNMRLREDKDPAKMVATIYELKEDKSYNVTKVMFQRKKCKYMINTFVPGSQPGEFTLGAIKSPPGPTSTLVRVVSTNYNQHAMVFFKHVFQNREYFHITLYGRTKELTSELKENFIRFSKSLGLPENHIVFPVPIDQCIDG
B3 showed a Kd [7] of 36 nM, a koff [7] of 0.075 s⁻¹ and a kon [7] of 2.1e+06 M⁻¹ s⁻¹. For the same binder, the binding result (BSA) was “no binding”, the binding result [8] was “no binding” and the Kd [9] was 5.26 nM. For the same binder, the koff [9] was 0.00762 s⁻¹, the kon [9] was 1.45e+06 M⁻¹ s⁻¹ and the Kd [10] was 5.3 nM. It also gave a Kd [11] of 40.1 nM.
